{"source": "patent US20260116983A1", "key": {"[1]": {"target": "human uPAR displayed on the surface of MDA-MB-231 cells (human) (UniProt Q03405)", "sequence (Q03405 23-305)": "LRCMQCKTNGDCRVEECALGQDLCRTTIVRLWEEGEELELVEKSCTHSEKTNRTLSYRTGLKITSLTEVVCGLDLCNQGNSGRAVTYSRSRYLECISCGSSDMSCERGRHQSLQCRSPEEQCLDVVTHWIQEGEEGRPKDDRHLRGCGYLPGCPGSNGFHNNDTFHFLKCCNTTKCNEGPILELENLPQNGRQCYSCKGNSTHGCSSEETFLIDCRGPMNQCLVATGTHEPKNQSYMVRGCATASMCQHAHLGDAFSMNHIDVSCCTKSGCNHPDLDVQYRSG", "experiment": "flow cytometry (FACS) on MDA-MB-231 cells; isotype control"}, "[2]": {"target": "human uPAR displayed on the surface of MDA-MB-231 cells (human) (UniProt Q03405)", "experiment": "cell-based or functional assay"}}}
{"substance": "human IgG1 control (antibody)", "values": [{"measurement": "Cellular recognition Max %", "setting": "[1]", "value": 155, "unit": "%"}, {"measurement": "ADCC NK-92 Max %", "setting": "[2]", "value": 0.468, "unit": "%"}, {"measurement": "ADCC PBMCs Max %", "setting": "[2]", "value": 4.8, "unit": "%"}]}
